Laboratory results from the Immune Epitope Database (IEDB).
One block for each sequence: values may come before it.

Key:
HLA-A*02:01 [1] = assay: IEDB peptide-MHC binding, purified MHC/competitive/radioactivity; ≥ and ≤ were set here for values at or beyond the usual limits of such assays
HLA-A*02:01 [2] = assay: IEDB peptide-MHC binding, purified MHC/direct/fluorescence; filed as Kd, often an IC50 or EC50 that approximates it; ≥ and ≤ were set here for values at or beyond the usual limits of such assays; details: source organism: Homo sapiens
HLA-A*03:01 = assay: as above
HLA-A*11:01 [3] = assay: as above
HLA-A*31:01 = assay: as above
HLA-A*69:01 = assay: as above
HLA-B*07:02 = assay: as above; details: source organism: Homo sapiens
HLA-B*15:01 [4] = assay: as above
HLA-B*27:05 = assay: as above
HLA-B*58:01 = assay: as above
HLA-C*03:03 = assay: as above; details: source organism: Homo sapiens
HLA-C*06:02 = assay: as above
HLA-A*32:07 = assay: IEDB peptide-MHC binding, purified MHC/competitive/fluorescence; filed as Kd, often an IC50 or EC50 that approximates it; ≥ and ≤ were set here for values at or beyond the usual limits of such assays
HLA-B*15:42 = assay: as above
HLA-B*45:06 = assay: as above
HLA-B*83:01 = assay: as above
HLA-A*11:01 [5] = assay: as above
HLA-A*01:01 [6] = assay: as above; details: source organism: Human immunodeficiency virus 1
HLA-A*02:03 = assay: as above; details: source organism: Human immunodeficiency virus 1
HLA-A*02:06 = assay: as above
HLA-A*26:02 [7] = assay: as above; details: source organism: Human immunodeficiency virus 1
HLA-A*30:01 = assay: as above
HLA-B*15:01 [8] = assay: as above; details: source organism: Human immunodeficiency virus 1
HLA-B*15:17 = assay: as above
HLA-B*18:01 = assay: as above; details: source organism: Human immunodeficiency virus 1
HLA-B*57:01 [9] = assay: as above; details: source organism: Human immunodeficiency virus 1
HLA-C*15:02 = assay: IEDB peptide-MHC binding, purified MHC/direct/fluorescence; filed as Kd, often an IC50 or EC50 that approximates it; ≥ and ≤ were set here for values at or beyond the usual limits of such assays
HLA-A*24:03 = assay: IEDB peptide-MHC binding, purified MHC/competitive/fluorescence; filed as Kd, often an IC50 or EC50 that approximates it; ≥ and ≤ were set here for values at or beyond the usual limits of such assays; details: source organism: Bacillus cereus G9241
HLA-C*14:02 [10] = assay: as above; details: source organism: Bacillus cereus G9241
HLA-C*14:02 [11] = assay: IEDB peptide-MHC binding, purified MHC/direct/fluorescence; filed as Kd, often an IC50 or EC50 that approximates it; ≥ and ≤ were set here for values at or beyond the usual limits of such assays; details: source organism: Yellow fever virus
HLA-A*01:01 [12] = assay: as above; details: source organism: Mycobacterium tuberculosis
HLA-B*39:01 = assay: as above; details: source organism: Mycobacterium tuberculosis str. Haarlem
HLA-B*40:01 = assay: as above; details: source organism: Mycobacterium tuberculosis
HLA-B*46:01 = assay: as above; details: source organism: Mycobacterium tuberculosis
HLA-B*48:01 = assay: as above; details: source organism: Mycobacterium tuberculosis
HLA-B*51:01 = assay: as above; details: source organism: Mycobacterium tuberculosis
HLA-B*57:01 [13] = assay: as above; details: source organism: Mycobacterium tuberculosis
HLA-A*02:01 [14] = assay: IEDB peptide-MHC binding, purified MHC/competitive/fluorescence; filed as Kd, often an IC50 or EC50 that approximates it; ≥ and ≤ were set here for values at or beyond the usual limits of such assays; details: source organism: Mycobacterium tuberculosis variant bovis BCG str. Pasteur 1173P2
HLA-B*08:01 = assay: as above; details: source organism: Mycobacterium tuberculosis variant bovis BCG str. Pasteur 1173P2
HLA-A*26:02 [15] = assay: IEDB peptide-MHC binding, purified MHC/direct/fluorescence; filed as Kd, often an IC50 or EC50 that approximates it; ≥ and ≤ were set here for values at or beyond the usual limits of such assays; details: source organism: Dengue virus 2 Thailand/16681/84
[16] = source organism: Human immunodeficiency virus 1
[17] = source organism: Bacillus cereus G9241
[18] = source organism: Yellow fever virus
[19] = source organism: Mycobacterium tuberculosis
[20] = source organism: Mycobacterium tuberculosis variant bovis BCG str. Pasteur 1173P2

- IC50 (HLA-A*02:01 [1]; source organism: Homo sapiens): 793 nM
Sequence: RTYSGPMNKV

Sequence: IMDKNIILKA
- IC50 (HLA-A*02:01 [1]; source organism: Influenza A virus (A/Puerto Rico/8/1934(H1N1))): 43000 nM

- Kd (HLA-A*02:01 [2]): 15600 nM
- Kd (HLA-A*03:01; source organism: Homo sapiens): 775 nM
- Kd (HLA-A*11:01 [3]; source organism: Homo sapiens): 1000 nM
- Kd (HLA-A*31:01; source organism: Homo sapiens): 143 nM
- Kd (HLA-A*69:01; source organism: Homo sapiens): 130 nM
- Kd (HLA-B*07:02): 232 nM
- Kd (HLA-B*15:01 [4]; source organism: Homo sapiens): 102 nM
- Kd (HLA-B*27:05; source organism: Homo sapiens): 2170 nM
- Kd (HLA-B*58:01; source organism: Homo sapiens): 304 nM
- Kd (HLA-C*03:03): 113 nM
- Kd (HLA-C*06:02; source organism: Homo sapiens): 49 nM
- Kd (HLA-A*32:07; source organism: Homo sapiens): 21.9 nM
- Kd (HLA-B*15:42; source organism: Homo sapiens): ≥ 20000 nM
- Kd (HLA-B*45:06; source organism: Homo sapiens): ≥ 5000 nM
- Kd (HLA-B*83:01; source organism: Homo sapiens): 9340 nM
Sequence: RVMAPRALL

Sequence: RTMEVFTMY
- Kd (HLA-A*11:01 [5]; source organism: Yersinia pestis Nepal516): 3.3 nM

Sequence: KSLYNTIATLY
- Kd (HLA-A*01:01 [6]): 2910 nM
- Kd (HLA-A*02:03): ≥ 20000 nM
- Kd (HLA-A*02:06; [16]): 2020 nM
- Kd (HLA-A*11:01 [5]; [16]): 697 nM
- Kd (HLA-A*26:02 [7]): 1060 nM
- Kd (HLA-A*30:01; [16]): ≥ 20000 nM
- Kd (HLA-B*15:01 [8]): ≥ 20000 nM
- Kd (HLA-B*15:17; [16]): 12.6 nM
- Kd (HLA-B*18:01): 346 nM
- Kd (HLA-B*57:01 [9]): 652 nM

Sequence: YYKKTFSAL
- Kd (HLA-C*06:02; [17]): 1660 nM
- Kd (HLA-C*15:02; [17]): ≥ 20000 nM
- Kd (HLA-A*24:03): ≤ 0.1 nM
- Kd (HLA-A*32:07; [17]): 29 nM
- Kd (HLA-B*15:42; [17]): ≥ 5000 nM
- Kd (HLA-B*45:06; [17]): ≥ 5000 nM
- Kd (HLA-B*83:01; [17]): ≥ 5000 nM
- Kd (HLA-C*14:02 [10]): 0.4 nM

- IC50 (HLA-A*02:01 [1]; source organism: Homo sapiens): ≥ 20000 nM
Sequence: CISSCNPNP

Sequence: RWFVRNPFF
- Kd (HLA-C*06:02; [18]): ≥ 20000 nM
- Kd (HLA-C*14:02 [11]): 278 nM
- Kd (HLA-C*15:02; [18]): ≥ 20000 nM
- Kd (HLA-B*15:42; [18]): ≥ 5000 nM
- Kd (HLA-B*45:06; [18]): ≥ 5000 nM
- Kd (HLA-B*83:01; [18]): ≥ 5000 nM

- IC50 (HLA-A*02:01 [1]; source organism: Homo sapiens): 100 nM
Sequence: ALSRKVAEL

Sequence: RPRLHSISF
- Kd (HLA-A*01:01 [12]): 1310 nM
- Kd (HLA-A*03:01; [19]): ≥ 20000 nM
- Kd (HLA-A*11:01 [3]; [19]): ≥ 20000 nM
- Kd (HLA-A*31:01; [19]): ≥ 20000 nM
- Kd (HLA-A*69:01; [19]): ≥ 20000 nM
- Kd (HLA-B*15:01 [4]; [19]): 79 nM
- Kd (HLA-B*27:05; [19]): ≥ 20000 nM
- Kd (HLA-B*39:01): ≥ 20000 nM
- Kd (HLA-B*40:01): ≥ 20000 nM
- Kd (HLA-B*46:01): ≥ 20000 nM
- Kd (HLA-B*48:01): ≥ 20000 nM
- Kd (HLA-B*51:01): ≥ 20000 nM
- Kd (HLA-B*57:01 [13]): ≥ 20000 nM
- Kd (HLA-B*58:01; [19]): ≥ 20000 nM
- Kd (HLA-A*02:01 [14]): ≥ 20000 nM
- Kd (HLA-A*02:06; [20]): ≥ 20000 nM
- Kd (HLA-A*30:01; [20]): ≥ 20000 nM
- Kd (HLA-B*08:01): 15.9 nM
- Kd (HLA-B*15:17; [20]): ≥ 20000 nM
- Kd (HLA-B*15:42; [20]): ≥ 5000 nM
- Kd (HLA-B*45:06; [20]): ≥ 5000 nM
- Kd (HLA-B*83:01; [20]): 45 nM

Sequence: EYTDYMPSM
- Kd (HLA-A*26:02 [15]): 26 nM
